Data on 5 molecules can be found in patent US20230272029A1, “CO-AGONISTS AT GLP-1 AND GIP RECEPTORS SUITABLE FOR ORAL DELIVERY” (Novo Nordisk A/S, priority 2020, published 2023).

Starred links: 1 amine or outer side, 2 acyl side, 3 side chain; linkers in the order of their positions; H or OH if unused. Non-standard residues stand in square brackets, D forms with d. Groups on a side chain read outwards from the residue. No end group written: not given here. *: point of attachment. C18 diacid = O=C(O)CCCCCCCCCCCCCCCCC(=O)*; γGlu = O=C(O)[C@H](CCC(=O)[*:2])N[*:1]; εLys = N[C@@H](CCCCN[*:1])C(=O)[*:2]; Aib = CC(C)(N)C(=O)O

Experiment [1] has as its target human GLP-1 receptor (human, UniProt P43220 24-463). The experiment in a line: cell-based or functional assay.
In experiment [2] the target is T1, human GIP receptor (human, UniProt P48546 22-466).
T1 sequence (looked up): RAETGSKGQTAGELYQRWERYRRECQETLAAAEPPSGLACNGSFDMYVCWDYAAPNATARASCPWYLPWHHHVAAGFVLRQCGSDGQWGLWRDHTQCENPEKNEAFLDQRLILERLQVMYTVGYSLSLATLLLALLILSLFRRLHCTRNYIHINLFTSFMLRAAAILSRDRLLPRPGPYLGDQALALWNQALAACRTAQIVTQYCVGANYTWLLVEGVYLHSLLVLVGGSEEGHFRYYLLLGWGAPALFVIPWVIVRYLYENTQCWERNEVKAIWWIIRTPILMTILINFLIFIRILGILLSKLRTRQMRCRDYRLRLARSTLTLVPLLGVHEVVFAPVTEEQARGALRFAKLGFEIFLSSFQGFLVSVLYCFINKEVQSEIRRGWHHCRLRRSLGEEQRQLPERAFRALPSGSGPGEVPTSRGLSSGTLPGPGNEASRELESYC
As to the kind of experiment: cell-based or functional assay.

B1: Compound No. 30 (peptide)
peptide: Y[Aib]EGTFTSDYSILLEK([εLys-εLys-γGlu-C18 diacid])QAAHEFIEWLLAGGPSSGAPPPS-OH
modifications: N-terminus assumed
SMILES: CC[C@H](C)[C@H](NC(=O)[C@H](Cc1ccccc1)NC(=O)[C@H](CCC(=O)O)NC(=O)[C@H](Cc1c[nH]cn1)NC(=O)[C@H](C)NC(=O)[C@H](C)NC(=O)[C@H](CCC(N)=O)NC(=O)[C@H](CCCCNC(=O)[C@@H](N)CCCCNC(=O)[C@@H](N)CCCCNC(=O)CC[C@H](NC(=O)CCCCCCCCCCCCCCCCC(=O)O)C(=O)O)NC(=O)[C@H](CCC(=O)O)NC(=O)[C@H](CC(C)C)NC(=O)[C@H](CC(C)C)NC(=O)[C@@H](NC(=O)[C@H](CO)NC(=O)[C@H](Cc1ccc(O)cc1)NC(=O)[C@H](CC(=O)O)NC(=O)[C@H](CO)NC(=O)[C@@H](NC(=O)[C@H](Cc1ccccc1)NC(=O)[C@@H](NC(=O)CNC(=O)[C@H](CCC(=O)O)NC(=O)C(C)(C)NC(=O)[C@@H](N)Cc1ccc(O)cc1)[C@@H](C)O)[C@@H](C)O)[C@@H](C)CC)C(=O)N[C@@H](CCC(=O)O)C(=O)N[C@@H](Cc1c[nH]c2ccccc12)C(=O)N[C@@H](CC(C)C)C(=O)N[C@@H](CC(C)C)C(=O)N[C@@H](C)C(=O)NCC(=O)NCC(=O)N1CCC[C@H]1C(=O)N[C@@H](CO)C(=O)N[C@@H](CO)C(=O)NCC(=O)N[C@@H](C)C(=O)N1CCC[C@H]1C(=O)N1CCC[C@H]1C(=O)N1CCC[C@H]1C(=O)N[C@@H](CO)C(=O)O
Consider B1, for which, in experiment [1], the “hGLP-1R, CRE Luc 0% HSA EC50 (pM)” value was found to be 7.3 pM and the “hGLP-1R, CRE Luc 1% HSA EC50 (pM)” value was determined as 268 pM. For the same molecule, in experiment [2], the “hGIPR, CRE Luc 0% HSA EC50 (pM)” value turned out to be 3.2 pM and the “hGIPR, CRE Luc 1% HSA EC50 (pM)” value stood at 185 pM.

B2: Compound No. 41 (peptide)
peptide: Y[Aib]EGTFTSDYSK([εLys-εLys-γGlu-C18 diacid])YLEEQAAREFINWLLAGGPSSGAPPPS-OH
modifications: N-terminus assumed
SMILES: CC[C@H](C)[C@H](NC(=O)[C@H](Cc1ccccc1)NC(=O)[C@H](CCC(=O)O)NC(=O)[C@H](CCCNC(=N)N)NC(=O)[C@H](C)NC(=O)[C@H](C)NC(=O)[C@H](CCC(N)=O)NC(=O)[C@H](CCC(=O)O)NC(=O)[C@H](CCC(=O)O)NC(=O)[C@H](CC(C)C)NC(=O)[C@H](Cc1ccc(O)cc1)NC(=O)[C@H](CCCCNC(=O)[C@@H](N)CCCCNC(=O)[C@@H](N)CCCCNC(=O)CC[C@H](NC(=O)CCCCCCCCCCCCCCCCC(=O)O)C(=O)O)NC(=O)[C@H](CO)NC(=O)[C@H](Cc1ccc(O)cc1)NC(=O)[C@H](CC(=O)O)NC(=O)[C@H](CO)NC(=O)[C@@H](NC(=O)[C@H](Cc1ccccc1)NC(=O)[C@@H](NC(=O)CNC(=O)[C@H](CCC(=O)O)NC(=O)C(C)(C)NC(=O)[C@@H](N)Cc1ccc(O)cc1)[C@@H](C)O)[C@@H](C)O)C(=O)N[C@@H](CC(N)=O)C(=O)N[C@@H](Cc1c[nH]c2ccccc12)C(=O)N[C@@H](CC(C)C)C(=O)N[C@@H](CC(C)C)C(=O)N[C@@H](C)C(=O)NCC(=O)NCC(=O)N1CCC[C@H]1C(=O)N[C@@H](CO)C(=O)N[C@@H](CO)C(=O)NCC(=O)N[C@@H](C)C(=O)N1CCC[C@H]1C(=O)N1CCC[C@H]1C(=O)N1CCC[C@H]1C(=O)N[C@@H](CO)C(=O)O
B2: in experiment [1], the “hGLP-1R, CRE Luc 0% HSA EC50 (pM)” value came out at 1.2 pM and the “hGLP-1R, CRE Luc 1% HSA EC50 (pM)” value stood at 31.4 pM. Moreover, in experiment [2], the “hGIPR, CRE Luc 0% HSA EC50 (pM)” value amounted to 4.9 pM and the “hGIPR, CRE Luc 1% HSA EC50 (pM)” value stood at 79.3 pM.

B3: Compound No. 42 (peptide)
peptide: Y[Aib]EGTFTSDYSIYLEEQAAREFINWLLAGGPSK([εLys-εLys-γGlu-C18 diacid])GAPPPS-OH
modifications: N-terminus assumed
SMILES: CC[C@H](C)[C@H](NC(=O)[C@H](Cc1ccccc1)NC(=O)[C@H](CCC(=O)O)NC(=O)[C@H](CCCNC(=N)N)NC(=O)[C@H](C)NC(=O)[C@H](C)NC(=O)[C@H](CCC(N)=O)NC(=O)[C@H](CCC(=O)O)NC(=O)[C@H](CCC(=O)O)NC(=O)[C@H](CC(C)C)NC(=O)[C@H](Cc1ccc(O)cc1)NC(=O)[C@@H](NC(=O)[C@H](CO)NC(=O)[C@H](Cc1ccc(O)cc1)NC(=O)[C@H](CC(=O)O)NC(=O)[C@H](CO)NC(=O)[C@@H](NC(=O)[C@H](Cc1ccccc1)NC(=O)[C@@H](NC(=O)CNC(=O)[C@H](CCC(=O)O)NC(=O)C(C)(C)NC(=O)[C@@H](N)Cc1ccc(O)cc1)[C@@H](C)O)[C@@H](C)O)[C@@H](C)CC)C(=O)N[C@@H](CC(N)=O)C(=O)N[C@@H](Cc1c[nH]c2ccccc12)C(=O)N[C@@H](CC(C)C)C(=O)N[C@@H](CC(C)C)C(=O)N[C@@H](C)C(=O)NCC(=O)NCC(=O)N1CCC[C@H]1C(=O)N[C@@H](CO)C(=O)N[C@@H](CCCCNC(=O)[C@@H](N)CCCCNC(=O)[C@@H](N)CCCCNC(=O)CC[C@H](NC(=O)CCCCCCCCCCCCCCCCC(=O)O)C(=O)O)C(=O)NCC(=O)N[C@@H](C)C(=O)N1CCC[C@H]1C(=O)N1CCC[C@H]1C(=O)N1CCC[C@H]1C(=O)N[C@@H](CO)C(=O)O
B3: in experiment [1], the “hGLP-1R, CRE Luc 0% HSA EC50 (pM)” value amounted to 2.3 pM and the “hGLP-1R, CRE Luc 1% HSA EC50 (pM)” value was 83.5 pM. In addition, in experiment [2], the “hGIPR, CRE Luc 0% HSA EC50 (pM)” value stood at 5.9 pM and the “hGIPR, CRE Luc 1% HSA EC50 (pM)” value was found to be 306 pM.

B4: Compound No. 29 (peptide)
peptide: Y[Aib]EGTFTSDYSILLEK([εLys-εLys-γGlu-C18 diacid])QAAQEFIEWLLAGGPSSGAPPPS-OH
modifications: N-terminus assumed
SMILES: CC[C@H](C)[C@H](NC(=O)[C@H](Cc1ccccc1)NC(=O)[C@H](CCC(=O)O)NC(=O)[C@H](CCC(N)=O)NC(=O)[C@H](C)NC(=O)[C@H](C)NC(=O)[C@H](CCC(N)=O)NC(=O)[C@H](CCCCNC(=O)[C@@H](N)CCCCNC(=O)[C@@H](N)CCCCNC(=O)CC[C@H](NC(=O)CCCCCCCCCCCCCCCCC(=O)O)C(=O)O)NC(=O)[C@H](CCC(=O)O)NC(=O)[C@H](CC(C)C)NC(=O)[C@H](CC(C)C)NC(=O)[C@@H](NC(=O)[C@H](CO)NC(=O)[C@H](Cc1ccc(O)cc1)NC(=O)[C@H](CC(=O)O)NC(=O)[C@H](CO)NC(=O)[C@@H](NC(=O)[C@H](Cc1ccccc1)NC(=O)[C@@H](NC(=O)CNC(=O)[C@H](CCC(=O)O)NC(=O)C(C)(C)NC(=O)[C@@H](N)Cc1ccc(O)cc1)[C@@H](C)O)[C@@H](C)O)[C@@H](C)CC)C(=O)N[C@@H](CCC(=O)O)C(=O)N[C@@H](Cc1c[nH]c2ccccc12)C(=O)N[C@@H](CC(C)C)C(=O)N[C@@H](CC(C)C)C(=O)N[C@@H](C)C(=O)NCC(=O)NCC(=O)N1CCC[C@H]1C(=O)N[C@@H](CO)C(=O)N[C@@H](CO)C(=O)NCC(=O)N[C@@H](C)C(=O)N1CCC[C@H]1C(=O)N1CCC[C@H]1C(=O)N1CCC[C@H]1C(=O)N[C@@H](CO)C(=O)O
In the case of B4, in experiment [1], the “hGLP-1R, CRE Luc 0% HSA EC50 (pM)” value was 16.8 pM and the “hGLP-1R, CRE Luc 1% HSA EC50 (pM)” value came to 378 pM. Also, in experiment [2], the “hGIPR, CRE Luc 0% HSA EC50 (pM)” value amounted to 3.8 pM and the “hGIPR, CRE Luc 1% HSA EC50 (pM)” value worked out at 102 pM.

B5: Compound No. 3 (peptide)
peptide: Y[Aib]EGTFTSDYSYYLEK([εLys-εLys-γGlu-C18 diacid])QAAQEFVNWLLAGGPSSGAPPPS-NH2
modifications: N-terminus assumed
SMILES: CC(C)C[C@H](NC(=O)[C@H](CC(C)C)NC(=O)[C@H](Cc1c[nH]c2ccccc12)NC(=O)[C@H](CC(N)=O)NC(=O)[C@@H](NC(=O)[C@H](Cc1ccccc1)NC(=O)[C@H](CCC(=O)O)NC(=O)[C@H](CCC(N)=O)NC(=O)[C@H](C)NC(=O)[C@H](C)NC(=O)[C@H](CCC(N)=O)NC(=O)[C@H](CCCCNC(=O)[C@@H](N)CCCCNC(=O)[C@@H](N)CCCCNC(=O)CC[C@H](NC(=O)CCCCCCCCCCCCCCCCC(=O)O)C(=O)O)NC(=O)[C@H](CCC(=O)O)NC(=O)[C@H](CC(C)C)NC(=O)[C@H](Cc1ccc(O)cc1)NC(=O)[C@H](Cc1ccc(O)cc1)NC(=O)[C@H](CO)NC(=O)[C@H](Cc1ccc(O)cc1)NC(=O)[C@H](CC(=O)O)NC(=O)[C@H](CO)NC(=O)[C@@H](NC(=O)[C@H](Cc1ccccc1)NC(=O)[C@@H](NC(=O)CNC(=O)[C@H](CCC(=O)O)NC(=O)C(C)(C)NC(=O)[C@@H](N)Cc1ccc(O)cc1)[C@@H](C)O)[C@@H](C)O)C(C)C)C(=O)N[C@@H](C)C(=O)NCC(=O)NCC(=O)N1CCC[C@H]1C(=O)N[C@@H](CO)C(=O)N[C@@H](CO)C(=O)NCC(=O)N[C@@H](C)C(=O)N1CCC[C@H]1C(=O)N1CCC[C@H]1C(=O)N1CCC[C@H]1C(=O)N[C@@H](CO)C(N)=O
For B5, in experiment [1], the “hGLP-1R, CRE Luc 0% HSA EC50 (pM)” value amounted to 8.5 pM and the “hGLP-1R, CRE Luc 1% HSA EC50 (pM)” value came to 626 pM. Moreover, in experiment [2], the “hGIPR, CRE Luc 0% HSA EC50 (pM)” value came to 6.9 pM and the “hGIPR, CRE Luc 1% HSA EC50 (pM)” value turned out to be 229 pM.
